Experimental data published in patent US20190160180A1 (FUSION PHARMACEUTICALS, published 2019).

What was measured:
[1] = molecular target: T1, human Endosialin expressed by Sjsa-1 cells (human, UniProt Q9HCU0 18-757); test: flow cytometry on Sjsa-1 cells
T1 construct: Endogenous Endosialin on human cell lines; also called Endosialin present on the cell plasma membrane; Endosialin on cell surface (Sjsa-1, T/G HA-VSMC, A673, SKNAS, A375 cells)
T1 sequence: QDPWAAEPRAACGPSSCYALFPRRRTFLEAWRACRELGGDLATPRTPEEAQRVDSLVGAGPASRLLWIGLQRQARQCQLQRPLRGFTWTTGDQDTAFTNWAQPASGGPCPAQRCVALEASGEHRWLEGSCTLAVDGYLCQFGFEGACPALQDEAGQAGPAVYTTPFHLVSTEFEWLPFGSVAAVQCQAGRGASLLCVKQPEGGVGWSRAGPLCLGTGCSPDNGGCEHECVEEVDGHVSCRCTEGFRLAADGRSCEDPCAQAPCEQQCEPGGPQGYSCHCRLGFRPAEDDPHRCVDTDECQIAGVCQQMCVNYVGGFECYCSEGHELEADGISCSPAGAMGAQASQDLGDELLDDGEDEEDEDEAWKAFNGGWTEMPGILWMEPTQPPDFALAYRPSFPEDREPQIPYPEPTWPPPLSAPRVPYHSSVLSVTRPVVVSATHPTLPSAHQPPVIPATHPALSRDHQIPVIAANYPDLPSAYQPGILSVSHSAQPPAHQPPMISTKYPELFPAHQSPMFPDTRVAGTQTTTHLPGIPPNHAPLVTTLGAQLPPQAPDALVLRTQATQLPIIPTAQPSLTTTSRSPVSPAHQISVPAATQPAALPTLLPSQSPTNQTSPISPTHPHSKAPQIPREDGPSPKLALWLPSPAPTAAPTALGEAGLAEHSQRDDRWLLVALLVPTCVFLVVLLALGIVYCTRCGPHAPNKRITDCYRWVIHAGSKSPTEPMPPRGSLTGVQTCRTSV
Procedure: (§1) Materials and Methods: (FIG. 2). (A) Ninety-six well plates (NUNC Maxisorp modules) were pre-coated with human recombinant Endosialin (1 μg/ml) overnight at 4° C. After blocking with 1% BSA in PBS+0.1% Tween-20 for 1 hour at 4° C., mMP-E-8.3, cMP-E-8.3, hMP-E-8.3 and a commercial antibody against Endosialin at the indicated concentration were added and incubated for 2 hours at room temperature. After several washes with PBS+0.1% Tween-20, a goat anti-mouse or anti-human IgG-HRP solution was added to each well and incubated for 1 hour at 37° C. After washes, stabilized chromogen was added to each well for at least 10 minutes in the dark, then the reaction was stopped with the addition of 1 N H₂SO4 and the absorbance was read at 450 nm with an ELISA reader. (B) Sjsa-1 human osteosarcoma cell line were stained with 1 μg/ml of mMP-E-8.3 antibody, or cMP-E-8.3 and hMP-E-8.3 at 100 ng/ml (blue line) and 1 ug/ml (green line) or with 1 μg/ml of a commercial antibody against Endosialin on ice for 30 minutes after incubation with a Goat anti-mouse/anti-human Alexa-488 conjugated antibodies for 1 hour on ice, cells were analyzed by flow cytometer (FACS). (C) Sjsa-1 human osteosarcoma cells were grown on glass coverslips for 24 hours. […]

[2] = molecular target: T2, human recombinant Endosialin (human, UniProt Q9HCU0 18-687, limits assumed); test: ELISA, plate coated with recombinant Endosialin
T2 construct: Coated on ELISA plates at 1 ug/ml; also called TEM-1; TEM1
T2 sequence: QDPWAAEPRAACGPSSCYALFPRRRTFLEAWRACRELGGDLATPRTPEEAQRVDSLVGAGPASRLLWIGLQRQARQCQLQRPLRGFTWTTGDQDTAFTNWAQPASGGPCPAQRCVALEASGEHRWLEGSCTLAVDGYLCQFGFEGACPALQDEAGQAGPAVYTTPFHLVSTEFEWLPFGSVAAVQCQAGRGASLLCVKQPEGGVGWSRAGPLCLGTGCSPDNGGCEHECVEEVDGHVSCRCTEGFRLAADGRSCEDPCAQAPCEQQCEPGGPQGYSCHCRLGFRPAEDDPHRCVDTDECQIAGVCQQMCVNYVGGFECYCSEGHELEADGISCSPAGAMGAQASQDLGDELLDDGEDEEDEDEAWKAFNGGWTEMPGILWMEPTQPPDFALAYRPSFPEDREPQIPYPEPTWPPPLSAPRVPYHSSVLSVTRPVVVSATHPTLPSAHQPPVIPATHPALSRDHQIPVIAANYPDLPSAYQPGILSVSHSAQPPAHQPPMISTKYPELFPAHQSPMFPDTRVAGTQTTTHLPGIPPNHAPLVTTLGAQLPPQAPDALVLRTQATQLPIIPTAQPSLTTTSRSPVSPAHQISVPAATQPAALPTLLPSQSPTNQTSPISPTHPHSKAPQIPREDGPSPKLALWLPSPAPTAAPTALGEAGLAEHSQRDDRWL
Procedure: as §1

B1: cMP-E-8.3 (antibody, V domains shown)
VH: QVQLQESGPGLVAPSQSLSITCTVSGFSLTGYGVNWVRQPPEKGLEWLGMIWVDGSTDYNSALKSRLNISKDKSKSQVFLKMNSLQTDDTARYYCARGGYGAMDYWGQGTSVTVSS
VL: DIQMNQSPSSLSASLGDTITITCHASQNINVWLTWYQQKPGNIPKLLIYKASNLHTGVPSRFSGSGSGTGFTLTISSLQPEDIATYYCQQGQSYPWTFGGGTKLEIKR
notes: also called chimeric cMP-E-8.3; chimerized version of mMP-E-8.3
binding result [1]: binds | binding result [2]: binds
